Assay results reported in paper doi:10.1101/2025.03.04.641353.
Like-named read-outs stand apart in the source and are kept apart here.

Columns and labels:
[1] = molecular target: T1, Bovine serum albumin (BSA) (Bos taurus, UniProt P02769 25-607); assay: SYBR Green I fluorescence titration
[2] = molecular target: T1, Bovine serum albumin (BSA); assay: SYBR Green I fluorescence titration; remark: listed apart in the source

T1 sequence (P02769 25-607): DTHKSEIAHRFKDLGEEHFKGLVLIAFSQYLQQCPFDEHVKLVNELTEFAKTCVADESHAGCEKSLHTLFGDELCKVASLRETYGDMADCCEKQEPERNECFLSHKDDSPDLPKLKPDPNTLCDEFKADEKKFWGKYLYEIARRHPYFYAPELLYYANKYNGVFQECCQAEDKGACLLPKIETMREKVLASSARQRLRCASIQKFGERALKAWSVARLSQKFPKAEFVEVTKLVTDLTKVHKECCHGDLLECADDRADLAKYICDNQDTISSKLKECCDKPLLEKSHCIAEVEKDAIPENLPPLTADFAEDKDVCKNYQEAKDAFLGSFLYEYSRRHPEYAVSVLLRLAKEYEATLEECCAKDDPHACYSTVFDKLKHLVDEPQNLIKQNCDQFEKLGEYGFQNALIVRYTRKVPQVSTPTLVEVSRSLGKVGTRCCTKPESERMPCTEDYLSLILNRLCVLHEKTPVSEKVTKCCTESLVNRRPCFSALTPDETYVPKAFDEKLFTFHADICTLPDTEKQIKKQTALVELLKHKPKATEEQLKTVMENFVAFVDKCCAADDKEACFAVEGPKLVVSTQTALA

Row | Binder | Kd [1] [nM] | Kd [2] [nM]
1 | AGCAGCACAGAGGTCAGATGGTATCGAGCGCAGGGCCGCCTTTGTT (ssDNA) [R_apt] | 20 | –
2 | Ni_apt (ssDNA) DNA: AAAAAAAAAAGCAGCACAGAGGTCAGATGGTATCGAGCGCAGGGCCGCCTTTGTT | – | 120
